Measured values reported in US20060234285A1 (Human Genome Sciences, published 2006).

How the values were obtained:
Experiment in all cases: flow cytometry on transiently transfected cells
[1] = target: T1, AITR, on transiently transfected cells (UniProt Q9Y5U5 26-241, limits assumed)
T1 construct: whole, on cells
T1 sequence (looked up): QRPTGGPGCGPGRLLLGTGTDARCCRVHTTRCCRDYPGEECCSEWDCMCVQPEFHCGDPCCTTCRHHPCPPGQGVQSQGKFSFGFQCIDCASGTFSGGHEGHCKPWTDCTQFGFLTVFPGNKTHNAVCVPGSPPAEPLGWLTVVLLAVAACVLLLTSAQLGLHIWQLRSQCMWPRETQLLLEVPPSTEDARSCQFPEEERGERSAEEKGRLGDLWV
Procedure: (§1) One million cells, in 0.1 ml of FACS buffer (PBS, 0.1% BSA, 0.1% NaN₃), were incubated with 0.1-1 microgram of protein or antibody at RT for 15 min. The cells were washed with 3 ml of FACS buffer, reacted with biotinylated primary antibody, and stained with PE-conjugated secondary antibody at RT for 15 min. Cells were then washed again, resuspended in 0.5 microgram/ml of propidium iodide, and live cells were gated and analyzed on a FACScan using the CellQuest software (BD Biosciences).

[2] = target: T2, BCMA, on transiently transfected cells (UniProt Q02223 1-184, limits assumed)
T2 construct: whole, on cells
T2 sequence (looked up): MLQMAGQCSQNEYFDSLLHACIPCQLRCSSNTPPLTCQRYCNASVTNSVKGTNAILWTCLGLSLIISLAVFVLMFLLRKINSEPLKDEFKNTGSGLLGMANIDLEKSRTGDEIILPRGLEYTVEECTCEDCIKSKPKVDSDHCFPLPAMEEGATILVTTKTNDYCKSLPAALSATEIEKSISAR
Procedure: as §1

[3] = target: T3, DR5, on transiently transfected cells (UniProt O14763 56-440, limits assumed)
T3 construct: whole, on cells
Procedure: as §1

[4] = target: T4, CD30, on transiently transfected cells (UniProt P28908 19-595, limits assumed)
T4 construct: whole, on cells
T4 sequence (looked up): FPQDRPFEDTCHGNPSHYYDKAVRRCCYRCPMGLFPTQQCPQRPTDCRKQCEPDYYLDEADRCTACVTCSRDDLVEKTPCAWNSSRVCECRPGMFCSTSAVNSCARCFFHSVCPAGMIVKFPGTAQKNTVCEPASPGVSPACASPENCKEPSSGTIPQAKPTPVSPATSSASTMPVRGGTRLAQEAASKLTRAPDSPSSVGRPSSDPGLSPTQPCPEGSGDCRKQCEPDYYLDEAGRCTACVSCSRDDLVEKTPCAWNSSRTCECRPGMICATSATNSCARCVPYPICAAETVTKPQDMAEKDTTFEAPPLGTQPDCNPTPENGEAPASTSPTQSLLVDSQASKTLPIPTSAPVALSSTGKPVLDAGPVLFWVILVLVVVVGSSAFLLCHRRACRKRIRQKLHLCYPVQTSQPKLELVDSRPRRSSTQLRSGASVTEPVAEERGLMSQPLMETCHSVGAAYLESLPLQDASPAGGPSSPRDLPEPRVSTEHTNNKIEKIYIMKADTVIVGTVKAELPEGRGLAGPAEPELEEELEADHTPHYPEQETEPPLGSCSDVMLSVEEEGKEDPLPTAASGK
Procedure: as §1

[5] = target: T5, RANK, on transiently transfected cells (UniProt Q9Y6Q6 30-616, limits assumed)
T5 construct: whole, on cells
T5 sequence (looked up): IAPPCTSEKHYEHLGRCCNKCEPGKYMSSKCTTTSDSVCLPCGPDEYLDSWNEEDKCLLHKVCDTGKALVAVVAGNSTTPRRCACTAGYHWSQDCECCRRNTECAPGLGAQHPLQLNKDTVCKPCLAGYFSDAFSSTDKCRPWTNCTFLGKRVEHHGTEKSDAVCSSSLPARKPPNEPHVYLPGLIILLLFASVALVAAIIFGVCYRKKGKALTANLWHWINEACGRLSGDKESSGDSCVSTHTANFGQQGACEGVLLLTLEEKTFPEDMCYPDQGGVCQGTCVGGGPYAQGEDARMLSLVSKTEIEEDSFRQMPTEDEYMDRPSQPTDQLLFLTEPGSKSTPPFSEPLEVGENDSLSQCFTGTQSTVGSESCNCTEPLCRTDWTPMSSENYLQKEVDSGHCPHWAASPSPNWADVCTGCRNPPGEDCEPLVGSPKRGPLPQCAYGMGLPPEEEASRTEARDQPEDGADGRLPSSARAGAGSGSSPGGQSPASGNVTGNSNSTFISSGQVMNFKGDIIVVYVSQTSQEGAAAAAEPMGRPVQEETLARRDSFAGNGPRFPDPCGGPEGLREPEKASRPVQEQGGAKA
Procedure: as §1

[6] = target: T6, LTβR, on transiently transfected cells (UniProt P36941 31-435)
T6 construct: whole, on cells
Procedure: as §1

[7] = target: T7, CD27, on transiently transfected cells (UniProt P26842 20-260, limits assumed)
T7 construct: whole, on cells
T7 sequence (looked up): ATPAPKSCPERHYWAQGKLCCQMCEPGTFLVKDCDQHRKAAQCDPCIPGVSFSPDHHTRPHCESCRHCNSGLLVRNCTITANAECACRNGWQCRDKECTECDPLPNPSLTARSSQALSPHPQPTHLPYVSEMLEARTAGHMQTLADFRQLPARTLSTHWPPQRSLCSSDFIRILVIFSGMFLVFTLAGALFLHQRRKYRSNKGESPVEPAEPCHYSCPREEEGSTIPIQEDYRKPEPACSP
Procedure: as §1

[8] = target: T8, DcR2, on transiently transfected cells (UniProt Q9UBN6 56-386, limits assumed)
T8 construct: whole, on cells
T8 sequence (looked up): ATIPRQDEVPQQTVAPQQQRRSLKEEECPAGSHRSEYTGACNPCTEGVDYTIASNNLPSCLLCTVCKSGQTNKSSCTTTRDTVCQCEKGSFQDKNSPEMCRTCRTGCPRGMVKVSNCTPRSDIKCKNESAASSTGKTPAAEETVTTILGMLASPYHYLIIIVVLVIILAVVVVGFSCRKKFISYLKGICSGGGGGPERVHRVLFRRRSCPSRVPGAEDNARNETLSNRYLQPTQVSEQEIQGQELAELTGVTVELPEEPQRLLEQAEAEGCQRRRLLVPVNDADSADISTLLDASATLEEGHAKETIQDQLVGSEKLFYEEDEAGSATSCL
Procedure: as §1

[9] = target: T9, 4-1BB, on transiently transfected cells (UniProt Q07011 24-255)
T9 construct: whole, on cells
Procedure: as §1

Measured: binding result

T6 sequence (P36941 31-435): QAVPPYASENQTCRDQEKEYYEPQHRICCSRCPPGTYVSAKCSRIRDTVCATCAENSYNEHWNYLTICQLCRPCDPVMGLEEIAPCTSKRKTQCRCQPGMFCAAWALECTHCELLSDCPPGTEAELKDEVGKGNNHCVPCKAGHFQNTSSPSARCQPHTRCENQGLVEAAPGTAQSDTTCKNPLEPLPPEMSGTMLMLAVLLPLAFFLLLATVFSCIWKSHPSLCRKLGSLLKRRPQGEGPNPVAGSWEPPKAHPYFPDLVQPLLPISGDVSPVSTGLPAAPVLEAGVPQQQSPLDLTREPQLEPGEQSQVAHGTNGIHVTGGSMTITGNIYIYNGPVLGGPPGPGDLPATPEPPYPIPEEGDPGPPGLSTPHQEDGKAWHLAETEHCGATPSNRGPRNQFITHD
T9 sequence (Q07011 24-255): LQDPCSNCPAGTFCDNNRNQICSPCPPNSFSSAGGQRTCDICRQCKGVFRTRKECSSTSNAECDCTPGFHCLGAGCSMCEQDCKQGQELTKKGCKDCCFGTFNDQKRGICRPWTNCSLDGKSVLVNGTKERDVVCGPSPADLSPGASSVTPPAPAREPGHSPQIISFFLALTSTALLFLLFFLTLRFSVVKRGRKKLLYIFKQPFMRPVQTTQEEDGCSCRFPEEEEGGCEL

B1: FLAG-tagged soluble form of TNF-gamma-beta (aa 72-251) (ligand, human, UniProt O95150 72-251, looked up, not shown: small tags and cut ends)
chain: LKGQEFAPSHQQVYAPLRADGDKPRAHLTVVRQTPTQHFKNQFPALHWEHELGLAFTKNRMNYTNKFLLIPESGDYFIYSQVTFRGMTSECSEIRQAGRPNKPDSITVVITKVTDSYPEPTQLLMGTKSVCEVGSNWFQPIYLGAMFSLQEGDKLMVNVSDISLVDYTKEDKTFFGAFLL
notes: also called FLAG-TL1β; FLAG-TNF-gamma-beta
no binding: all assays above
